Values joined by “and” are separate entries in the source; they are usually repeats but may differ in a detail not shown here. Equal entries are not always repeated.
Molecular target: the molecule itself
Test: cryo-EM 2D class averages

B1: EspB_(1–332) (domain or fragment)
chain: MTQSQTVTVDQQEILNRANEVEAPMADPPTDVPITPCELTAAKNAAQQLVLSADNMREYLAAGAKERQRLATSLRNAAKAYGEVDEEAATALDNDGEGTVQAESAGAVGGDSSAELTDTPRVATAGEPNFMDLKEAARKLETGDQGASLAHFADGWNTFNLTLQGDVKRFRGFDNWEGDAATACEASLDQQRQWILHMAKLSAAMAKQAQYVAQLHVWARREHPTYEDIVGLERLYAENPSARDQILPVYAEYQQRSEKVLTEYNNKAALEPVNPPKPPPAIKIDPPPPPQEQGLIPGFLMPPSDGSGVTPGTGMPAAPMVPPTGSPGGGLP
Question: For B1, which “stoichiometry N” value is on record?
Answer: Its value is 7 and 6.
